B1: MARVEL domain-containing protein 2 (Homo sapiens), Q8N4S9 (parent)
chain: MSNDGRSRNRDRRYDEVPSDLPYQDTTIRTHPTLHDSERAVSADPLPPPPLPLQPPFGPDFYSSDTEEPAIAPDLKPVRRFVPDSWKNFFRGKKKDPEWDKPVSDIRYISDGVECSPPASPARPNHRSPLNSCKDPYGGSEGTFSSRKEADAVFPRDPYGSLDRHTQTVRTYSEKVEEYNLRYSYMKSWAGLLRILGVVELLLGAGVFACVTAYIHKDSEWYNLFGYSQPYGMGGVGGLGSMYGGYYYTGPKTPFVLVVAGLAWITTIIILVLGMSMYYRTILLDSNWWPLTEFGINVALFILYMAAAIVYVNDTNRGGLCYYPLFNTPVNAVFCRVEGGQIAAMIFLFVTMIVYLISALVCLKLWRHEAARRHREYMEQQEINEPSLSSKRKMCEMATSGDRQRDSEVNFKELRTAKMKPELLSGHIPPGHIPKPIVMPDYVAKYPVIQTDDERERYKAVFQDQFSEYKELSAEVQAVLRKFDELDAVMSRLPHHSESRQEHERISRIHEEFKKKKNDPTFLEKKERCDYLKNKLSHIKQRIQEYDKVMNWDVQGYS

Variants of: B1
Conditions: with plmn_human PLG

Variant | effect of a mutation on the interaction
K217A | decreasing interaction strength
K252A | decreasing interaction strength
K217A;K252A | disrupting interaction strength
